Measurements published in paper PMC10637977, “The preferential transport of NO3^− by full-length Guillardia theta anion channelrhodopsin 1 is enhanced by its extended cytoplasmic domain” (The Journal of Biological Chemistry, 2023).

B1: GtACR1 without the CPD (GtACR1_ΔCPD), C-terminal eight-histidine tag (domain or fragment, Guillardia theta, UniProt L1J207 1-295, looked up)
chain: MSSITCDPAIYGEWSRENQFCVEKSLITLDGIKYVQLVMAVVSACQVFFMVTRAPKVPWEAIYLPTTEMITYSLAFTGNGYIRVANGKYLPWARMASWLCTCPIMLGLVSNMALVKYKSIPLNPMMIAASSICTVFGITASVVLDPLHVWLYCFISSIFFIFEMVVAFAIFAITIHDFQTIGSPMSLKVVERLKLMRIVFYVSWMAYPILWSFSSTGACIMSENTSSVLYLLGDALCKNTYGILLWATTWGLLNGKWDRDYVKGRNVDGTLMPEYEQDLEKGNTERYEDARAGET
modifications: all-trans-retinal bound to Lys238 via a protonated Schiff base linkage
notes: Guillardia theta anion channelrhodopsin 1 (GtACR1) with the C-terminal cytoplasmic domain (CPD, 143 amino acids) deleted; composed of 295 amino acids; Calculated molecular mass 34.4 kDa; also called CPD-deleted GtACR1; GtACR1 rhodopsin domain; source: P. pastoris SMD1168H, recombinant expression (pPICZ B vector, codon-optimised gene); not shown: His8, C-terminal, kept
B2: full-length Guillardia theta anion channelrhodopsin 1 (GtACR1_full) (natural protein, UniProt L1J207 1-438, looked up)
chain: MSSITCDPAIYGEWSRENQFCVEKSLITLDGIKYVQLVMAVVSACQVFFMVTRAPKVPWEAIYLPTTEMITYSLAFTGNGYIRVANGKYLPWARMASWLCTCPIMLGLVSNMALVKYKSIPLNPMMIAASSICTVFGITASVVLDPLHVWLYCFISSIFFIFEMVVAFAIFAITIHDFQTIGSPMSLKVVERLKLMRIVFYVSWMAYPILWSFSSTGACIMSENTSSVLYLLGDALCKNTYGILLWATTWGLLNGKWDRDYVKGRNVDGTLMPEYEQDLEKGNTERYEDARAGETFEVKMFGRTLTSVRRSRRRPRRDIVFNGGDRNRLSDSDSERRRRRKKYQRKDSESENSSDESMGSEHEKNRRKGKKKNKENRRSAPPKEDSTSDTLRDAEIKRIMDLMKRNAGSDIPGLDGDGRLRDDGGLIPTRNEEHDDSA
modifications: all-trans-retinal bound to Lys238 via a protonated Schiff base linkage
notes: Guillardia theta anion channelrhodopsin 1 (GtACR1), full length, 438 amino acids (rhodopsin domain plus cytoplasmic domain, CPD); Calculated molecular mass 51.0 kDa; Details of construction and expression are in the Supporting information; also called full-length GtACR1; source: P. pastoris SMD1168H, recombinant expression (pPICZ B vector, codon-optimised gene); not shown: His8, C-terminal, kept

Target: the molecule itself
Assay: SDS-PAGE and Western blot; P. pastoris cells expressing the protein compared with a negative control; immunoblotting with an anti-His tag antibody; bands assigned to monomer and dimer by molecular mass

Row | Protein | stoichiometry N
1 | B1 | 2
2 | B2 | 2
